Literature values as cited in paper PMC7768908 (Biochemistry, 2020).

Assays:
[1] = system: cytoplasmic tail of MT1-MMP; settings: ref [13]
MT1-MMP = settings: by binding the cytoplasmic tail of MT1-MMP; ref [13]

binding to the cytoplasmic tail of MT1-MMP [1]: binds to the cytoplasmic tail of MT1-MMP
B1: ADI1 gene product: ADI1 gene encoding HsARD; human acireductone dioxygenase (protein, UniProt Q9BV57 1-179, looked up)
Acireductone dioxygenase: MVQAWYMDDAPGDPRQPHRPDPGRPVGLEQLRRLGVLYWKLDADKYENDPELEKIRRERNYSWMDIITICKDKLPNYEEKIKMFYEEHLHLDDEIRYILDGSGYFDVRDKEDQWIRIFMEKGDMVTLPAGIYHRFTVDEKNYTKAMRLFVGEPVWTAYNRPADHFEARGQYVKFLAQTA
effect on MT1-MMP protease activity (MT1-MMP): suppressing protease activity
